Experiment [1] deals with IgE antibodies in pooled sera from patients (collection of sera from 10 patients showing high values in RAST method). Briefly: RAST cross inhibition, pooled patient sera; competitor: MF-2 immobilised on solid phase.
Experiment [2] shares this target. Briefly: RAST cross inhibition, pooled patient sera; competitor: MF-1 immobilised on solid phase.
The target is the same in experiment [3]. Briefly: RAST cross inhibition, pooled patient sera; competitor: MF-4 immobilised on solid phase.

The values below come from patent US20030105283A1.

A word on the IC50: it is the concentration at which inhibition is half-maximal. Low readings indicate greater potency in that assay, high ones weaker potency in that assay.

B1: purified antigenic protein MF-1 (protein)
chain: PGDPTATAKGNEIPDTLMGYIPWTPELDSGEVCGIPTTFKTRDEWKGKKVVIVSIPGAYTPICHQQHIPPLVKRVDELKAKGVDAVYVIASNDPFVMAAWGNFNNAKDKVVFATDIDLAFSKALGATIDLSAKHFGERTARYALIIDDNKIVDFASDEGDTGKLQNASIDTILTKV
On to B1, for which the IC50 in experiment [1] was > 100 µg/mL; in experiment [2], 0.038 µg/mL; in experiment [3], 18 µg/mL. The relative concentration for 50% inhibition (in brackets; homologous antigen = 1) in experiment [1] was > 7700; in experiment [2], 1; in experiment [3], 290.

B2: purified antigenic protein MF-2 (protein)
chain: EIGSTIPNATFAYVPYSPELEDHKVCGMPTSFQSHERWKGKKVVIVAVPGAFTPTCTANHVPPYVEKIQELKSKGVDEVVVISANDPFVLSAWGITEHAKDNLTFAQDVNCEFSKHFNATLDLSSKGMGLRTARYALIANDLKVEYFGIDEGEPKQSSAATVLSKL
modifications: N-terminus blocked
For the molecule B2, the 50% inhibitory concentration (IC50) worked out at 0.013 µg/mL in experiment [1], 8.6 µg/mL in experiment [2] and 30 µg/mL in experiment [3]. Besides, the relative concentration for 50% inhibition (in brackets; homologous antigen = 1) came to 1 in experiment [1], 230 in experiment [2] and 480 in experiment [3].
